Test [1] has as its target human IR L1-CR-L2/α-CT domains (human) (UniProt P06213). Kind of test: ITC. (In general: In ITC the heat of successive injections is recorded.)
Test [2] has as its target human IR FnIII-1 domain (residues 460-596; C468A, C524A, DFR496-498AAA) (human) (UniProt P06213). As to the kind of experiment: ITC.

Turning to “insulin WT (ΔB30; desB30 human insulin) (ligand)”, the Kd – broadly, the constant that tells how readily two partners part at equilibrium – in test [1] worked out at 90 nM; in test [2] it was 760 nM.
